Key:
[1] = target: T1, VP16-HA-Tap full length (Homo sapiens) (UniProt Q9UBU9); assay: one_hybrid
T1 sequence: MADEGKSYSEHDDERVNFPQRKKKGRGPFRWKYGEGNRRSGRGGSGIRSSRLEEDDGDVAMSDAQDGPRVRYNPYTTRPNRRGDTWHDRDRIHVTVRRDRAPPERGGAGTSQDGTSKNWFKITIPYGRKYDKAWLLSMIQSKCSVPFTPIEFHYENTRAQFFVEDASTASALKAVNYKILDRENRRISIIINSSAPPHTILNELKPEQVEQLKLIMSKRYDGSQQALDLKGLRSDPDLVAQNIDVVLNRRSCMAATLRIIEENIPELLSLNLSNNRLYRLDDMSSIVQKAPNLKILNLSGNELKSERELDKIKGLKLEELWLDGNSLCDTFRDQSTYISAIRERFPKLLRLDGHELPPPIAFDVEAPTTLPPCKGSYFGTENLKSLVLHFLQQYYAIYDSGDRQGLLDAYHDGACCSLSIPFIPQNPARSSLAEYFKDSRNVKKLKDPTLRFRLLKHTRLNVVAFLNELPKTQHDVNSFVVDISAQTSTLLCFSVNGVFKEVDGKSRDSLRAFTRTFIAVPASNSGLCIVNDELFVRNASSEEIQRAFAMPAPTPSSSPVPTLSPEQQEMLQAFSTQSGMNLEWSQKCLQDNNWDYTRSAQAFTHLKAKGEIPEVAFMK

[2] = target: T2, Tat-Tap full length (Homo sapiens) (UniProt Q9UBU9); assay: cell_activity; conditions: 293T
T2 sequence: T1 sequence

Substance	activity ([1]; yeast three-hybrid)	activity ([1]; yeast three-hybrid beta-gal, VP16 alone 11)	activity (fold activation) [2]
CTE antisense	< 4 mOD/ml	–	–
HIV-1 TAR	< 4 mOD/ml	–	–
MPMV CTE	–	602 mOD/ml	20
iron response element	< 4 mOD/ml	–	–
